These results are taken from patent publication US20100249029A1 (Novo Nordisk, published 2010).

For assay [1], the target named is T1, Biotinylated prolactin receptor BirATag-Ser-PRLR (1-210) (human, UniProt P16471 25-234, biotinylated (BirA tag, biotin added during expression in E. coli)).
T1 construct: range 1-210; also called BirA-Ser-PRLR (1-210); not shown: BirA tag (biotin acceptor tag)
T1 sequence: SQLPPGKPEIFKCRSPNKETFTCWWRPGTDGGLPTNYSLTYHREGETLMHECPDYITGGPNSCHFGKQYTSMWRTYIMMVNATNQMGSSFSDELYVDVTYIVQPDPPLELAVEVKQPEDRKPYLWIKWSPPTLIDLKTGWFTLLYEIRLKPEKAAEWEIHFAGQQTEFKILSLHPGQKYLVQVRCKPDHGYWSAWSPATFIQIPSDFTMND
The assay can be described thus: SPR (Biacore); biotinylated BirATag-Ser-PRLR (1-210) amine-coupled to CM5 chip, variant injected at 3.13-50 nM; STDEV 0.17. Here is the method: (§1) Biotinylated prolactin receptor BirATag-Ser-PRLR (1-210) was diluted to 20 μg/ml in 10 mM sodium acetate pH 4.0 (Biacore BR-1003-49) and immobilized on a CM5 chip (Biacore BR-1006-68) with the immobilization reagents 1-ethyl-3-(3-dimethylaminopropyl) carbodiimide hydrochloride (EDC), N-hydroxysuccinimide (NHS) and 1.0 M ethanolamine-HCl pH 8.5 (Biacore BR1000-50). The immobilization level was 1500 RU. The PRL variants prepared as described in Example 5 were diluted to a series of concentrations as following: 3.13/6.25/12.5/25/50 nM and run through the PRLR immobilized chip using HBS-EP (10 mM HEPES pH 7.4; 150 mM NaCl; 3 mM EDTA; 0.005% v/v Tween-20) as the running buffer under the following conditions: […]
(In general: In SPR one partner is held on a chip, and binding of the other changes the refractive index at the surface.)

Assay [2] has as its target T1, Biotinylated prolactin receptor …. The assay can be described thus: SPR (Biacore); biotinylated BirATag-Ser-PRLR (1-210) amine-coupled to CM5 chip, variant injected at 3.13-50 nM; STDEV 0.29. Here is the method:
as §1

For assay [3] the target is unchanged. Kind of assay: SPR (Biacore); biotinylated BirATag-Ser-PRLR (1-210) amine-coupled to CM5 chip, control injected at 3.13-50 nM; STDEV 1.63; one value under a double label. As for the experimental part:
as §1

For assay [4] the target is unchanged. Kind of assay: SPR (Biacore); biotinylated BirATag-Ser-PRLR (1-210) amine-coupled to CM5 chip, variant injected at 3.13-50 nM; STDEV 0.042. As for the experimental part: as §1
Assay [5] has the same target. Kind of assay: SPR (Biacore); biotinylated BirATag-Ser-PRLR (1-210) amine-coupled to CM5 chip, variant injected at 3.13-50 nM; STDEV 0.28. Here is the method:
as §1

The target of assay [6] is T2, PRLR stably expressed on Ba/F3 cells (Ba/F3-PRLR) (UniProt P16471 25-622, limits assumed).
T2 sequence (looked up): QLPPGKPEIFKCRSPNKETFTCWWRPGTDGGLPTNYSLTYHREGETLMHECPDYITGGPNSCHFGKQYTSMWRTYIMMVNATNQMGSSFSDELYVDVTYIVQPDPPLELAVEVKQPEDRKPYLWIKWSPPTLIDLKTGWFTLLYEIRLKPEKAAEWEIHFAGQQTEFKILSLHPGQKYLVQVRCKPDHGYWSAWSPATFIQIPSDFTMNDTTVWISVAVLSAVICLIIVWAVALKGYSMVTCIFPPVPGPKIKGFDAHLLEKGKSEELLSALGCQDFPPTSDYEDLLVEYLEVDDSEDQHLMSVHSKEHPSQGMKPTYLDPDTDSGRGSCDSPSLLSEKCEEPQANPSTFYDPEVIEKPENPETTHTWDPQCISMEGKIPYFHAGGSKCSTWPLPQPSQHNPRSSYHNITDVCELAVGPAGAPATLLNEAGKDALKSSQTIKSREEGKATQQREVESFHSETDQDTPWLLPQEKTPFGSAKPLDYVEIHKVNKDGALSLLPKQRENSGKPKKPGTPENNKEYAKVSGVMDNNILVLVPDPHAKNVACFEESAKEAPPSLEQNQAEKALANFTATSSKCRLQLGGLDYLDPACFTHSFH
Kind of assay: cell-based or functional assay.

Assay [7] has as its target T1, Biotinylated prolactin receptor …. Kind of assay: Biacore SPR, BirATag-Ser-PRLR (1-210) immobilised on a CM5 chip, PRL analogues 1.6-25 nM. Here is the method: as §1, with “on the” for “on a”, “PRL analogues” for “PRL variants prepared as described in Example 5”, “following: 1.6/3.13/6.25/12.5/25” for “following: 3.13/6.25/12.5/25/50”
Assay [8] deals with T2, PRLR stably expressed on Ba/F3 cells …. The assay can be described thus: cell-based or functional assay. The source holds these as a separate data set.
Assay [9] concerns the target T1, Biotinylated prolactin receptor …. The assay can be described thus: SPR (Biacore); BirATag-Ser-PRLR (1-210) on CM5 chip, analogue injected at 1.6-25 nM (FIG. 5). As for the experimental part: as §1, with “on the” for “on a”, “PRL analogues” for “PRL variants prepared as described in Example 5”, “following: 1.6/3.13/6.25/12.5/25” for “following: 3.13/6.25/12.5/25/50”

B1: Ser-PRL Q73L, G129R, K190R (ligand)
chain: SLPICPGGAARCQVTLRDLFDRAVVLSHYIHNLSSEMFSEFDKRYTHGRGFITKAINSCHTSSLATPEDKEQALQMNQKDFLSLIVSILRSWNEPLYHLVTEVRGMQEAPEAILSKAVEIEEQTKRLLERMELIVSQVHPETKENEIYPVWSGLPSLQMADEESRLSAYYNLLHCLRRDSHKIDNYLKLLRCRIIHNNNC
The term Kd denotes the equilibrium constant for the complex coming apart. High values mean lower affinity, low ones higher affinity. B1 displayed a Kd in assay [1] of 2.6 nM.

B2: Ser-PRL S38I, D68N, G129R, S179T, I182V (ligand)
chain: SLPICPGGAARCQVTLRDLFDRAVVLSHYIHNLSSEMFIEFDKRYTHGRGFITKAINSCHTSSLATPENKEQAQQMNQKDFLSLIVSILRSWNEPLYHLVTEVRGMQEAPEAILSKAVEIEEQTKRLLERMELIVSQVHPETKENEIYPVWSGLPSLQMADEESRLSAYYNLLHCLRRDTHKVDNYLKLLKCRIIHNNNC
In assay [2], B2 had a Kd of 3.1 nM.

B3: Ser-PRL S33D, Q73L, M75T, N76S, F80L, G129R, K190R (ligand)
chain: SLPICPGGAARCQVTLRDLFDRAVVLSHYIHNLDSEMFSEFDKRYTHGRGFITKAINSCHTSSLATPEDKEQALQTSQKDLLSLIVSILRSWNEPLYHLVTEVRGMQEAPEAILSKAVEIEEQTKRLLERMELIVSQVHPETKENEIYPVWSGLPSLQMADEESRLSAYYNLLHCLRRDSHKIDNYLKLLRCRIIHNNNC
The molecule B3 registered a Kd in [1] of 3.1 nM.

B4: Ser-PRL G129R (ligand)
chain: SLPICPGGAARCQVTLRDLFDRAVVLSHYIHNLSSEMFSEFDKRYTHGRGFITKAINSCHTSSLATPEDKEQAQQMNQKDFLSLIVSILRSWNEPLYHLVTEVRGMQEAPEAILSKAVEIEEQTKRLLERMELIVSQVHPETKENEIYPVWSGLPSLQMADEESRLSAYYNLLHCLRRDSHKIDNYLKLLKCRIIHNNNC
notes: The control row gives one KD under the double label 'PRL G129R/Ser-PRL G129R'
In assay [3], B4 registered an equilibrium dissociation constant (Kd) of 13.9 nM.

B5: Ser-PRL G129R, K190R, I194V, H195Y, N196R, N197D (ligand)
chain: SLPICPGGAARCQVTLRDLFDRAVVLSHYIHNLSSEMFSEFDKRYTHGRGFITKAINSCHTSSLATPEDKEQAQQMNQKDFLSLIVSILRSWNEPLYHLVTEVRGMQEAPEAILSKAVEIEEQTKRLLERMELIVSQVHPETKENEIYPVWSGLPSLQMADEESRLSAYYNLLHCLRRDSHKIDNYLKLLRCRIVYRDNC
The molecule B5 gave an equilibrium dissociation constant (Kd) in assay [4] of 3.2 nM.

B6: Ser-PRL Q73L M75T N76S F80L G129R (ligand)
chain: SLPICPGGAARCQVTLRDLFDRAVVLSHYIHNLSSEMFSEFDKRYTHGRGFITKAINSCHTSSLATPEDKEQALQTSQKDLLSLIVSILRSWNEPLYHLVTEVRGMQEAPEAILSKAVEIEEQTKRLLERMELIVSQVHPETKENEIYPVWSGLPSLQMADEESRLSAYYNLLHCLRRDSHKIDNYLKLLKCRIIHNNNC
In the case of B6, the affinity in [5], expressed as Kd, was 3.6 nM.

B7: wild type human prolactin (ligand)
chain: LPICPGGAARCQVTLRDLFDRAVVLSHYIHNLSSEMFSEFDKRYTHGRGFITKAINSCHTSSLATPEDKEQAQQMNQKDFLSLIVSILRSWNEPLYHLVTEVRGMQEAPEAILSKAVEIEEQTKRLLEGMELIVSQVHPETKENEIYPVWSGLPSLQMADEESRLSAYYNLLHCLRRDSHKIDNYLKLLKCRIIHNNNC
For B7, in assay [6], the “EC50, Ba/F3-PRLR proliferation assay” value is 0.102 nM; the “EC50, stimulation (proliferation) assay, Ba/F3-PRLR cell line PRLR-09” value turned out to be 54 pM; the “EC50, stimulation (proliferation) assay, Ba/F3-PRLR cell line PRLR-32” value worked out at 37.5 pM.

B8: PRL S61A, Q71A, Q73A, G129R (ligand)
prolactin variant: LPICPGGAARCQVTLRDLFDRAVVLSHYIHNLSSEMFSEFDKRYTHGRGFITKAINSCHTASLATPEDKEAAAQMNQKDFLSLIVSILRSWNEPLYHLVTEVRGMQEAPEAILSKAVEIEEQTKRLLERMELIVSQVHPETKENEIYPVWSGLPSLQMADEESRLSAYYNLLHCLRRDSHKIDNYLKLLKCRIIHNNNC
notes: It is not in the first reading's list; also called rational designed mutant
In the case of B8, in assay [7], the binding result is on record as “binds”.

B9: PRL G129R (ligand)
chain: LPICPGGAARCQVTLRDLFDRAVVLSHYIHNLSSEMFSEFDKRYTHGRGFITKAINSCHTSSLATPEDKEQAQQMNQKDFLSLIVSILRSWNEPLYHLVTEVRGMQEAPEAILSKAVEIEEQTKRLLERMELIVSQVHPETKENEIYPVWSGLPSLQMADEESRLSAYYNLLHCLRRDSHKIDNYLKLLKCRIIHNNNC
notes: also called [2H,15N]PRL-G129R; [2H,13C,15N]PRL-G129R
As to B9, binding in assay [3] was put at a Kd of 13.9 nM. Further, in assay [8], the “EC50 (so in the source); inhibition of proliferation of Ba/F3-PRLR cells stimulated with 1 nM wtPRL, OD490nM” value is 64.6 nM and the “LOGEC50 (same fit)” value was -7.19 LogM. In addition, in assay [6], the “EC50, Ba/F3-PRLR proliferation assay” value was 3.2 nM and the “highest proliferation rate relative to wtPRL, Ba/F3-PRLR proliferation assay” value was 12 % of wtPRL.

B10: [PRL S33A, Q73L, G129R, K190R] (ligand)
chain: LPICPGGAARCQVTLRDLFDRAVVLSHYIHNLASEMFSEFDKRYTHGRGFITKAINSCHTSSLATPEDKEQALQMNQKDFLSLIVSILRSWNEPLYHLVTEVRGMQEAPEAILSKAVEIEEQTKRLLERMELIVSQVHPETKENEIYPVWSGLPSLQMADEESRLSAYYNLLHCLRRDSHKIDNYLKLLRCRIIHNNNC
For B10, the “fold higher affinity than wt PRL and [PRL G129R]” value in [9] is around 2 fold.

B11: [PRL Q73L, M75T, N76S, F80L, G129R] (ligand)
chain: LPICPGGAARCQVTLRDLFDRAVVLSHYIHNLSSEMFSEFDKRYTHGRGFITKAINSCHTSSLATPEDKEQALQTSQKDLLSLIVSILRSWNEPLYHLVTEVRGMQEAPEAILSKAVEIEEQTKRLLERMELIVSQVHPETKENEIYPVWSGLPSLQMADEESRLSAYYNLLHCLRRDSHKIDNYLKLLKCRIIHNNNC
notes: also called HTPN-62
As for B11, in [8], the “EC50 (so in the source); inhibition of proliferation of Ba/F3-PRLR cells stimulated with 1 nM wtPRL, OD490nM” value is 13.8 nM and the “LOGEC50 (same fit)” value is -7.86 LogM. Also, in [6], the “antagonist activity relative to [PRL G129R], Ba/F3-PRLR competition assay against 1 nM wtPRL” value is around 4 fold. For the same molecule, the “fold higher affinity than wt PRL and [PRL G129R]” value in [9] is around 2 fold.
